Measured values published in US7799901B2, “Modulators of the function of FAS receptors and other proteins” (Yeda Research and Development Co. Ltd., priority 1995, dated 2010).

Assays:
[1] = system: Fas/APO1 cytotoxicity (p55-Fas chimera) in 293-EBNA cells; assay type: cell-based, human; settings: co-transfection
Method: In brief, 293-EBNA cells, MCF7 human breast carcinoma cells and HeLa HtTA-1 cells were grown in Dulbecco's modified Eagle's minimal essential medium supplemented with 10% fetal calf serum, nonessential amino acids, 100 U/ml penicillin and 100 μg/ml streptomycin. Cell tissue culture dishes (5×10^5 293-EBNA cells, 3×10^5 s MCF7 cells or 3×10^5 HeLa cells in 6-cm dishes) were transiently transfected, using the calcium phosphate precipitation method, with the cDNAs of the indicated proteins together with the β-galactosidase expression vector. In the experiments presented in FIGS. 14A-D and 15, each dish was transfected with 3.5 μg of the indicated MACH construct and 1.5 μg of pSV-β-gal. In the experiments presented in FIGS. 16A-D and 17-19, each dish was transfected with 2.5 μg of the indicated MACH or MORT1 construct (or, as control, empty vector) and 1.5 μg of pSV-β-gal. The cells were rinsed 6 to 10 h after transfection. The 293-EBNA and MCF7 cells were incubated for a further 18 h without additional treatment. […] The extent of cell death at the end of the incubation periods was assessed by determination of β-galactosidase expression, as described by Kumar et al, 1994. […]
In particular, FIGS. 16A-D show morphology of 293-EBNA cells in which cell death was induced by transient expression of a chimera comprised of the extracellular domain of the p55-R (amino acids 1-168) fused to the transmembrane and intracellular domains of Fas/APO1 (amino acids 153-319) (p55-Fas chimera) (FIGS. 16A and 16B), or by expression of the p55-R (FIGS. 16C and 16D), and of cells that were protected from these cytotoxic effects by their simultaneous transfection with MACHα1 (C360S) (FIGS. 16B and 16D). […] FIG. 17 illustrates the quantification of death induced in 293-EBNA cells by their transfection with p55-Fas chimera or with p55-R, together with an empty vector, a MORT1 deletion mutant lacking the MACH-binding region (MORT1 (92-208)), or MACHα molecules containing a nonfunctional CED3/ICE region. […] Data are from at least two independent experiments and are expressed as in FIGS. 14A-F and 15.

MACHα1 (C360S) = target: T1, MACHα1 (C360S) (Homo sapiens, UniProt Q14790, C360S); test: Two-hybrid β-galactosidase filter assay (FIG. 5), binding to MACHα1 (C360S); settings: two hybrid test
T1 construct: expressed in transfected cells; host or cells: SFY526 yeast
Method: In FIG. 5, there is shown the results of the interaction of MORT-1 and MACH within transfected yeast cells. Briefly, MORT-1 and MACHβ1 and their deletion constructs, as well as MACHα1, a MACHα1 mutant in which the catalytic cysteine Cys360 is replaced by Ser (MACHα1 (C360S)) and the intracellular domain of human FAS-R (Fas-IC), were expressed within transfected SFY526 yeast in Gal4 DNA binding domain and activation domain constructs (pGBT9 and pGAD-GH). Their interaction was assessed by a β-galactosidase expression filter assay as described in Boldin et al (1995b). The results are presented in terms of the time required for the development of strong color. […] None of the inserts examined interacted with a number of tested negative controls, including the intracellular domains of human p55 TNF receptor, p75 TNF receptor and CD40, and lamin, cyclin D and ‘empty’ Gal4 vectors. MACHβ1 was cloned by two hybrid screening of a Gal4 AD-tagged human B cell library (Durfee et al, 1993) for proteins that bind to MORT-1, using the HF7c Yeast reporter strain. Except where otherwise indicated, all experimental procedures for the findings presented are as described above (see also Boldin et al, 1995). […] MACHβ1 also self-associated in the transfected yeast. […] Expression of MACHβ1 molecules in mammalian cells yielded a 34 kDa protein that bound to MORT-1 molecules co-expressed with it. […]

B1: MACHα1 (C360S): MACHα1 mutant in which the catalytic cysteine Cys360 is replaced by Ser (protein)
chain: MDFSRNLYDIGEQLDSEDLASLKFLSLDYIPQRKQEPIKDALMLFQRLQEKRMLEESNLSFLKELLFRINRLDLLITYLNTRKEEMERELQTPGRAQISAYRVMLYQISEEVSRSELRSFKFLLQEEISKCKLDDDMNLLDIFIEMEKRVILGEGKLDILKRVCAQINKSLLKIINDYEEFSKERSSSLEGSPDEFSNGEELCGVMTISDSPREQDSESQTLDKVYQMKSKPRGYCLIINNHNFAKAREKVPKLHSIRDRNGTHLDAGALTTTFEELHFEIKPHDDCTVEQIYEILKIYQLMDHSNMDCFICCILSHGDKGIIYGTDGQEAPIYELTSQFTGLKCPSLAGKPKVFFIQASQGDNYQKGIPVETDSEEQPYLEMDLSSPQTRYIPDEADFLLGMATVNNCVSYRNPAEGTWYIQSLCQSLRERCPRGDDILTILTEVNYEVSNKDDKKNMGKQMPQPTFTLRKKLVFPSD
protection against Fas/APO1 cytotoxicity (p55-Fas chimera) [1]: protected | binding to MACHα1 (C360S) in transfected yeast (MACHα1 (C360S)): bound
